Assays:
[1] = target: VcaM4I HNH domain H224A variant (residues 179-309) (Vibrio campbellii); test: SEC; Superdex 75 10/300 GL, 15 mM Tris-HCl (pH 8.5), 0.3 M NaCl, 1 mM TCEP; bovine serum albumin, ovalbumin, myoglobin and vitamin B12 as molecular mass standards
[2] = target: VcaM4I Helix-HNH fragment (residues 148-309) (Vibrio campbellii); test: as above

Substance | stoichiometry N [1] | stoichiometry N [2]
VcaM4I HNH domain H224A variant (residues 179-309) (domain or fragment) | 2 | –
VcaM4I Helix-HNH fragment (residues 148-309) (domain or fragment) | – | 2
